Source: PMC314469, “Protein Interaction Networks by Proteome Peptide Scanning” (PLoS Biology, 2004)

T1: Yfr024 SH3 (LSB3_YEAST), P43603
T1 chain: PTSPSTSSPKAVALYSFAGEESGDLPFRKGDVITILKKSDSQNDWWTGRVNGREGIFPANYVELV

T2: Boi1 SH3 (BOI1_YEAST), P38041
T2 chain: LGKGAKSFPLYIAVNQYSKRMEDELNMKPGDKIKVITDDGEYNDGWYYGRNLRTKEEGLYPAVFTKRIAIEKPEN

T3: Myo5 SH3 (MYO5_YEAST), Q04439
T3 chain: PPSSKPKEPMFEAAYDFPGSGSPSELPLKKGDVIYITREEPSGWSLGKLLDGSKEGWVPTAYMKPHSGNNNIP

T4: Boi2 SH3 (BOI2_YEAST), P39969
T4 chain: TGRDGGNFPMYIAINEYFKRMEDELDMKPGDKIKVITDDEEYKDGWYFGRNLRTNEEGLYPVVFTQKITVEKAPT

T5: Yhr016c SH3 (YSC84_YEAST), P32793
T5 chain: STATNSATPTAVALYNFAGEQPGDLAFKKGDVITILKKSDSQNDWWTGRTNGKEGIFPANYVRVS

T6: Rvs167 SH3 (RV167_YEAST), P39743
T6 chain: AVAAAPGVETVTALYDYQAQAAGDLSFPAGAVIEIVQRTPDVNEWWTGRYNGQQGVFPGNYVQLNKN

T7: Abp1 SH3 (ABP1_YEAST), P15891
T7 chain: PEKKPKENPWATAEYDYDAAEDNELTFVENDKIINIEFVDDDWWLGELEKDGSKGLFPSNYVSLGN


Target: T1, Yfr024 SH3 (LSB3_YEAST), P43603
Experiment: SPOT array

Binder | normalised SPOT signal, Boehringer light units (BLU); mean over the file's lines of this peptide
NGTWKYNPTVPNEL [YPR151C 143-156] | 381
TIEARVHPEPPNKP [YDR330W 403-416] | 44.2
LKDPKSFPPPPLKP [YBR108W 80-93] | 62.9
EYSPRPSPWLPSKP [YDR151C 76-89] | 668
NIFQKQLPKMPKEY [YGR252W 122-135] | 392
VKPTKLEPENPQKP [YFL054C 234-247] | 17
KRNSKHAPFIPVKP [YPR095C 154-167] | 751
ENTPRPNPTQPRKP [YDR359C 772-785] | 205
YTYSRNEPVIPTKP [YNL139C 1275-1288] | 242
VASSRTEPSTPSRP [YJL095W 1074-1087] | 3610
RPKRRAPPPVPKKP [YIR003W 383-396] | 6360
SKDKKTKPTPPPKP [YNL020C 602-615] | 211

target: Sho1 SH3 (SHO1_YEAST), P40073; experiment: SPOT array
Sequence (P40073 295-366): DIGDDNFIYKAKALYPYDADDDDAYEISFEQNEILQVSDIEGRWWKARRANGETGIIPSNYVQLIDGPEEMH

Binder | normalised SPOT signal, Boehringer light units (BLU); mean over the file's lines of this peptide
NGTWKYNPTVPNEL [YPR151C 143-156] | 3.7
TIEARVHPEPPNKP [YDR330W 403-416] | 32.7
LKDPKSFPPPPLKP [YBR108W 80-93] | 78.9
EYSPRPSPWLPSKP [YDR151C 76-89] | 34.7
NIFQKQLPKMPKEY [YGR252W 122-135] | 16700
VKPTKLEPENPQKP [YFL054C 234-247] | 23.8
KRNSKHAPFIPVKP [YPR095C 154-167] | 86.4
ENTPRPNPTQPRKP [YDR359C 772-785] | 13.1
YTYSRNEPVIPTKP [YNL139C 1275-1288] | 44.7
VASSRTEPSTPSRP [YJL095W 1074-1087] | 62.9
RPKRRAPPPVPKKP [YIR003W 383-396] | 5190
SKDKKTKPTPPPKP [YNL020C 602-615] | 331

Target: T2, Boi1 SH3 (BOI1_YEAST), P38041
Experiment: SPOT array

Binder | normalised SPOT signal, Boehringer light units (BLU); mean over the file's lines of this peptide
NGTWKYNPTVPNEL [YPR151C 143-156] | 72.4
TIEARVHPEPPNKP [YDR330W 403-416] | 0
LKDPKSFPPPPLKP [YBR108W 80-93] | 55.3
EYSPRPSPWLPSKP [YDR151C 76-89] | 184
NIFQKQLPKMPKEY [YGR252W 122-135] | 646
VKPTKLEPENPQKP [YFL054C 234-247] | 49.7
KRNSKHAPFIPVKP [YPR095C 154-167] | 412
ENTPRPNPTQPRKP [YDR359C 772-785] | 154
YTYSRNEPVIPTKP [YNL139C 1275-1288] | -0
VASSRTEPSTPSRP [YJL095W 1074-1087] | 120
RPKRRAPPPVPKKP [YIR003W 383-396] | 1170
SKDKKTKPTPPPKP [YNL020C 602-615] | 353

Target: T3, Myo5 SH3 (MYO5_YEAST), Q04439
Experiment: SPOT array

Binder | normalised SPOT signal, Boehringer light units (BLU); mean over the file's lines of this peptide
NGTWKYNPTVPNEL [YPR151C 143-156] | 173
TIEARVHPEPPNKP [YDR330W 403-416] | 375
LKDPKSFPPPPLKP [YBR108W 80-93] | 253
EYSPRPSPWLPSKP [YDR151C 76-89] | 73.7
NIFQKQLPKMPKEY [YGR252W 122-135] | 276
VKPTKLEPENPQKP [YFL054C 234-247] | 91.3
KRNSKHAPFIPVKP [YPR095C 154-167] | 382
ENTPRPNPTQPRKP [YDR359C 772-785] | 137
YTYSRNEPVIPTKP [YNL139C 1275-1288] | 210
VASSRTEPSTPSRP [YJL095W 1074-1087] | 178
RPKRRAPPPVPKKP [YIR003W 383-396] | 67400
SKDKKTKPTPPPKP [YNL020C 602-615] | 180

Target: T4, Boi2 SH3 (BOI2_YEAST), P39969
Experiment: SPOT array

Binder | normalised SPOT signal, Boehringer light units (BLU); mean over the file's lines of this peptide
NGTWKYNPTVPNEL [YPR151C 143-156] | 24.2
TIEARVHPEPPNKP [YDR330W 403-416] | 20.8
LKDPKSFPPPPLKP [YBR108W 80-93] | 45.6
EYSPRPSPWLPSKP [YDR151C 76-89] | 22.4
NIFQKQLPKMPKEY [YGR252W 122-135] | 203
VKPTKLEPENPQKP [YFL054C 234-247] | 8.7
KRNSKHAPFIPVKP [YPR095C 154-167] | 37
ENTPRPNPTQPRKP [YDR359C 772-785] | 0
YTYSRNEPVIPTKP [YNL139C 1275-1288] | -0
VASSRTEPSTPSRP [YJL095W 1074-1087] | 10.5
RPKRRAPPPVPKKP [YIR003W 383-396] | 26.1
SKDKKTKPTPPPKP [YNL020C 602-615] | 40.8

Target: T5, Yhr016c SH3 (YSC84_YEAST), P32793
Experiment: SPOT array

Binder | normalised SPOT signal, Boehringer light units (BLU); mean over the file's lines of this peptide
NGTWKYNPTVPNEL [YPR151C 143-156] | 22.7
TIEARVHPEPPNKP [YDR330W 403-416] | 1
LKDPKSFPPPPLKP [YBR108W 80-93] | 6.5
EYSPRPSPWLPSKP [YDR151C 76-89] | 107
NIFQKQLPKMPKEY [YGR252W 122-135] | 4960
VKPTKLEPENPQKP [YFL054C 234-247] | 22.4
KRNSKHAPFIPVKP [YPR095C 154-167] | 150
ENTPRPNPTQPRKP [YDR359C 772-785] | 54.9
YTYSRNEPVIPTKP [YNL139C 1275-1288] | 15.9
VASSRTEPSTPSRP [YJL095W 1074-1087] | 602
RPKRRAPPPVPKKP [YIR003W 383-396] | 114
SKDKKTKPTPPPKP [YNL020C 602-615] | 22.7

Target: T6, Rvs167 SH3 (RV167_YEAST), P39743
Experiment: SPOT array

Binder | normalised SPOT signal, Boehringer light units (BLU); mean over the file's lines of this peptide
NGTWKYNPTVPNEL [YPR151C 143-156] | 87.9
TIEARVHPEPPNKP [YDR330W 403-416] | 26.6
LKDPKSFPPPPLKP [YBR108W 80-93] | 78.4
EYSPRPSPWLPSKP [YDR151C 76-89] | 54.8
NIFQKQLPKMPKEY [YGR252W 122-135] | 555
VKPTKLEPENPQKP [YFL054C 234-247] | 28
KRNSKHAPFIPVKP [YPR095C 154-167] | 68.7
ENTPRPNPTQPRKP [YDR359C 772-785] | 53.6
YTYSRNEPVIPTKP [YNL139C 1275-1288] | 68.4
VASSRTEPSTPSRP [YJL095W 1074-1087] | 76.3
RPKRRAPPPVPKKP [YIR003W 383-396] | 1050
SKDKKTKPTPPPKP [YNL020C 602-615] | 71.4

Target: T7, Abp1 SH3 (ABP1_YEAST), P15891
Experiment: SPOT array

Binder | normalised SPOT signal, Boehringer light units (BLU); mean over the file's lines of this peptide
TIEARVHPEPPNKP [YDR330W 403-416] | 36.2
LKDPKSFPPPPLKP [YBR108W 80-93] | 124
EYSPRPSPWLPSKP [YDR151C 76-89] | 519
VKPTKLEPENPQKP [YFL054C 234-247] | 42.5
KRNSKHAPFIPVKP [YPR095C 154-167] | 1030
ENTPRPNPTQPRKP [YDR359C 772-785] | 102
YTYSRNEPVIPTKP [YNL139C 1275-1288] | 224
VASSRTEPSTPSRP [YJL095W 1074-1087] | 184
RPKRRAPPPVPKKP [YIR003W 383-396] | 80000
SKDKKTKPTPPPKP [YNL020C 602-615] | 77200
